Assay results reported in patent US20200262877A1, “ION CHANNEL-BINDING PEPTIDES AND METHODS OF USE THEREOF” (priority 2017, published 2020).

Columns and labels:
TRPV1 = biological target: T1, TRPV1 (Homo sapiens, UniProt Q8NER1); assay: Ion channel panel (IonWorks Barracuda): TRPV1; assay type: cell-based; settings: 100% = no change, <100% = inhibition
T1 construct: host or cells: HEK293 or CHO
Summary of the method: (§1)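 Transfected HEK293 or CHO cells were exposed for at least 5 min to peptides at 200 nM and 20 μM final, tested in duplicate, in HEPES-buffered physiological saline. Activation was taken as peptide-plus-agonist current over control current ×100, and inhibition as 1 minus that ratio ×100. Each channel's control was its own reference compound.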

Kv1.3 = biological target: T2, Kv1.3 (Homo sapiens, UniProt P22001); assay: cell-based; assay type: cell-based; settings: 100% = no change, <100% = inhibition
T2 construct: host or cells: HEK293 or CHO
Summary of the method: as §1

Kv1.1 = biological target: T3, Kv1.1 (Homo sapiens, UniProt Q09470); assay: cell-based; assay type: cell-based; settings: 100% = no change, <100% = inhibition
T3 construct: host or cells: HEK293 or CHO
Summary of the method: as §1

Kv1.2 = biological target: T4, Kv1.2 (Homo sapiens, UniProt P16389); assay: cell-based; assay type: cell-based; settings: 100% = no change, <100% = inhibition
T4 construct: host or cells: HEK293 or CHO
Summary of the method: as §1

TRPA1 = biological target: T5, TRPA1 (Homo sapiens, UniProt O75762); assay: Ion channel panel (IonWorks Barracuda): TRPA1; assay type: cell-based; settings: 100% = no change, <100% = inhibition
T5 construct: host or cells: HEK293 or CHO
Summary of the method: as §1

Nav1.7 = biological target: T6, Nav1.7 (Homo sapiens, UniProt Q15858); assay: cell-based; assay type: cell-based; settings: 100% = no change; for Activity of Nav1.7 with peptide, expressed as a percentage of the reference compound: peptide at 0.2 μM; for Activity of Nav1.7 with peptide (percentage of the reference compound): peptide at 20 μM
T6 construct: host or cells: HEK293 or CHO

Nav1.5 = Nav1.5 (Homo sapiens, UniProt Q14524); assay: in vitro; settings: 100% = no change; for Activity of Nav1.5 with peptide, expressed as a percentage of the reference compound: peptide at 0.2 μM; for Activity of Nav1.5 with peptide (percentage of the reference compound): peptide at 20 μM
Summary of the method: as §1

hERG = hERG (Homo sapiens, UniProt Q12809); assay: in vitro; settings: 100% = no change, <100% = inhibition
Summary of the method: as §1

GABA = assay: Ion channel panel (IonWorks Barracuda): GABA; assay type: cell-based; settings: 100% = no change, <100% = inhibition
Summary of the method: as §1

5HT3a = biological target: T7, 5HT3a (Homo sapiens, UniProt P46098); assay: Ion channel panel (IonWorks Barracuda): 5HT3a; assay type: cell-based
T7 construct: host or cells: HEK293 or CHO
T7 sequence (P46098 whole entry, looked up): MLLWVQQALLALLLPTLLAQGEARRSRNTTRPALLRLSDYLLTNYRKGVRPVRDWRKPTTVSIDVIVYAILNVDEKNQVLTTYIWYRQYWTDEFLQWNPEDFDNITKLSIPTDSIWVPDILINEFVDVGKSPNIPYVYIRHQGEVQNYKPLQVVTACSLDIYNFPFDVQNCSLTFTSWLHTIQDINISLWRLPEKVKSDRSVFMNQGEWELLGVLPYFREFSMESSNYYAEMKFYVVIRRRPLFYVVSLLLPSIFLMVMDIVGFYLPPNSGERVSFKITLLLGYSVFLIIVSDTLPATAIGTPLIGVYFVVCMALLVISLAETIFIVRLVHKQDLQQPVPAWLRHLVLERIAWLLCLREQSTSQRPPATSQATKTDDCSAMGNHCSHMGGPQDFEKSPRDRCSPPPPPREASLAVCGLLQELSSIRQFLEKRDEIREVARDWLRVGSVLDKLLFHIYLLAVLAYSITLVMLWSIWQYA
Summary of the method: as §1

α3β4 = biological target: T8, α3β4 (Homo sapiens, UniProt P30926+P32297); assay: Ion channel panel (IonWorks Barracuda): α3β4; assay type: cell-based; settings: 100% = no change, <100% = inhibition
T8 construct: host or cells: HEK293 or CHO
Summary of the method: as §1

NR2B = biological target: T9, NR2B (Homo sapiens, UniProt Q13224); assay: Ion channel panel (IonWorks Barracuda): NR2B; assay type: cell-based; settings: 100% = no change, <100% = inhibition
T9 construct: host or cells: HEK293 or CHO
Summary of the method: as §1

Cav2.1 = biological target: T10, Cav2.1 (Homo sapiens, UniProt O00555); assay: cell-based; settings: 100% = no change, <100% = inhibition
T10 construct: host or cells: HEK293 or CHO
Summary of the method: as §1

Cav2.2 = biological target: T11, Cav2.2 (Homo sapiens, UniProt Q00975); assay: cell-based; settings: 100% = no change, <100% = inhibition
T11 construct: host or cells: HEK293 or CHO
Summary of the method: as §1

Kv2.1 = biological target: T12, Kv2.1 (Homo sapiens, UniProt Q14721); assay: cell-based; settings: 100% = no change, <100% = inhibition
T12 construct: host or cells: HEK293 or CHO
Summary of the method: as §1

α4β2 = biological target: T13, α4β2 (Homo sapiens, UniProt P17787+P43681); assay: Ion channel panel (IonWorks Barracuda): α4β2; assay type: cell-based; settings: 100% = no change, <100% = inhibition
T13 construct: host or cells: HEK293 or CHO
Summary of the method: as §1

NR2A = biological target: T14, NR2A (Homo sapiens, UniProt Q12879); assay: Ion channel panel (IonWorks Barracuda): NR2A; assay type: cell-based; settings: 100% = no change, <100% = inhibition
T14 construct: host or cells: HEK293 or CHO
Summary of the method: as §1

Kir2.1 = biological target: T15, Kir2.1 (Homo sapiens, UniProt P63252); assay: Ion channel panel (IonWorks Barracuda): Kir2.1; assay type: cell-based; settings: 100% = no change, <100% = inhibition
T15 construct: host or cells: HEK293 or CHO
Summary of the method: as §1

[1] = first of two Nav1.7 columns (probably TP1)
[2] = second of two Nav1.7 columns (probably TP2)
[3] = first of two Nav1.5 columns (probably TP1)
[4] = second of two Nav1.5 columns (probably TP2)

T6 sequence (Q15858 whole entry): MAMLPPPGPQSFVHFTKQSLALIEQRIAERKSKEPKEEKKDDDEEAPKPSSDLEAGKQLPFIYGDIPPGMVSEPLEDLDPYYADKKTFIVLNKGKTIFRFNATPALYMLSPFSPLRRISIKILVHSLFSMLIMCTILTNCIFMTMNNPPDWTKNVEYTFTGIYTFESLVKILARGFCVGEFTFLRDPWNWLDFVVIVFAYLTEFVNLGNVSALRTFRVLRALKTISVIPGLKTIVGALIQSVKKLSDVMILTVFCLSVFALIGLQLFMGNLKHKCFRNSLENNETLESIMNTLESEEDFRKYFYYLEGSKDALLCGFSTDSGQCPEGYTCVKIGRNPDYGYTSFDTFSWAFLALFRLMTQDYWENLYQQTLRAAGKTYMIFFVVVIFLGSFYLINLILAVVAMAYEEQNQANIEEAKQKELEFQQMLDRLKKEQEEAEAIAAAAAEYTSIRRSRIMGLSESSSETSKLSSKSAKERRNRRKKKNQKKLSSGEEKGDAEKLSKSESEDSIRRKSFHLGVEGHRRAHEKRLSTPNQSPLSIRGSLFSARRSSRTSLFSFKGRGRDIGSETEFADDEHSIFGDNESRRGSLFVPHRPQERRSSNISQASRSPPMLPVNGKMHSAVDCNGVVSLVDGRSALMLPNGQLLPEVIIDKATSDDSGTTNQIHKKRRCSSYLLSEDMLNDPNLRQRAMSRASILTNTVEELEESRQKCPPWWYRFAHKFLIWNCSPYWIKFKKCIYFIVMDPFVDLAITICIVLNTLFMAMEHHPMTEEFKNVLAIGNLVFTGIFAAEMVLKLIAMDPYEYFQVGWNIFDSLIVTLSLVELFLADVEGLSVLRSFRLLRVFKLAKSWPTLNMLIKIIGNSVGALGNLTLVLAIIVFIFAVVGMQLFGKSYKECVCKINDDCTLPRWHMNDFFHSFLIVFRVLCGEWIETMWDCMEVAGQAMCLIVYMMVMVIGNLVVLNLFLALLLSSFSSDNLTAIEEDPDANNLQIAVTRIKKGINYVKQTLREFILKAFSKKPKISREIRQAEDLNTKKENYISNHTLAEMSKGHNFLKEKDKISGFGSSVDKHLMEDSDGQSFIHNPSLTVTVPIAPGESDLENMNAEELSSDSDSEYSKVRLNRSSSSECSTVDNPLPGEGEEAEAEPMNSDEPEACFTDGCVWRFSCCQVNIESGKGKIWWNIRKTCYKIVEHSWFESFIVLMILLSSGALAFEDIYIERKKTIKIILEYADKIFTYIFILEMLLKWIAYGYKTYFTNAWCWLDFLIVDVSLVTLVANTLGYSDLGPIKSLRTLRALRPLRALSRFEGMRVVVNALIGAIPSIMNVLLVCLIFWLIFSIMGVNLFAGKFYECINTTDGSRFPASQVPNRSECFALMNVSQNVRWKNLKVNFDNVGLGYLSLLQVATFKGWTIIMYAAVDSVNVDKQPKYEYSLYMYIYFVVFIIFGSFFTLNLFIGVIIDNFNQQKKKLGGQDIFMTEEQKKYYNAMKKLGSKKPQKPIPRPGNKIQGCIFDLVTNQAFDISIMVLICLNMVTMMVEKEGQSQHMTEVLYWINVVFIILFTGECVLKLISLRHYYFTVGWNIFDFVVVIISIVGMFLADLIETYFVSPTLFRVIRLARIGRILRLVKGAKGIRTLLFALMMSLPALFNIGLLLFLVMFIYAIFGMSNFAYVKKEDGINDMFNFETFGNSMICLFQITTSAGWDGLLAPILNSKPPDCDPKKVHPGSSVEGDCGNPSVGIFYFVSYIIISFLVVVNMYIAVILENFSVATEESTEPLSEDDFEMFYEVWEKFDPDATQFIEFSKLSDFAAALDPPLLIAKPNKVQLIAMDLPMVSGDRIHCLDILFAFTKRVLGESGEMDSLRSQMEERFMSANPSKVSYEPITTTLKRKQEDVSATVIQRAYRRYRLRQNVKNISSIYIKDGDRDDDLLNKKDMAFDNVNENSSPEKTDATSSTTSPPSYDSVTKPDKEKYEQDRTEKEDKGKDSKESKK
Sequence of Nav1.5 (Q14524 whole entry): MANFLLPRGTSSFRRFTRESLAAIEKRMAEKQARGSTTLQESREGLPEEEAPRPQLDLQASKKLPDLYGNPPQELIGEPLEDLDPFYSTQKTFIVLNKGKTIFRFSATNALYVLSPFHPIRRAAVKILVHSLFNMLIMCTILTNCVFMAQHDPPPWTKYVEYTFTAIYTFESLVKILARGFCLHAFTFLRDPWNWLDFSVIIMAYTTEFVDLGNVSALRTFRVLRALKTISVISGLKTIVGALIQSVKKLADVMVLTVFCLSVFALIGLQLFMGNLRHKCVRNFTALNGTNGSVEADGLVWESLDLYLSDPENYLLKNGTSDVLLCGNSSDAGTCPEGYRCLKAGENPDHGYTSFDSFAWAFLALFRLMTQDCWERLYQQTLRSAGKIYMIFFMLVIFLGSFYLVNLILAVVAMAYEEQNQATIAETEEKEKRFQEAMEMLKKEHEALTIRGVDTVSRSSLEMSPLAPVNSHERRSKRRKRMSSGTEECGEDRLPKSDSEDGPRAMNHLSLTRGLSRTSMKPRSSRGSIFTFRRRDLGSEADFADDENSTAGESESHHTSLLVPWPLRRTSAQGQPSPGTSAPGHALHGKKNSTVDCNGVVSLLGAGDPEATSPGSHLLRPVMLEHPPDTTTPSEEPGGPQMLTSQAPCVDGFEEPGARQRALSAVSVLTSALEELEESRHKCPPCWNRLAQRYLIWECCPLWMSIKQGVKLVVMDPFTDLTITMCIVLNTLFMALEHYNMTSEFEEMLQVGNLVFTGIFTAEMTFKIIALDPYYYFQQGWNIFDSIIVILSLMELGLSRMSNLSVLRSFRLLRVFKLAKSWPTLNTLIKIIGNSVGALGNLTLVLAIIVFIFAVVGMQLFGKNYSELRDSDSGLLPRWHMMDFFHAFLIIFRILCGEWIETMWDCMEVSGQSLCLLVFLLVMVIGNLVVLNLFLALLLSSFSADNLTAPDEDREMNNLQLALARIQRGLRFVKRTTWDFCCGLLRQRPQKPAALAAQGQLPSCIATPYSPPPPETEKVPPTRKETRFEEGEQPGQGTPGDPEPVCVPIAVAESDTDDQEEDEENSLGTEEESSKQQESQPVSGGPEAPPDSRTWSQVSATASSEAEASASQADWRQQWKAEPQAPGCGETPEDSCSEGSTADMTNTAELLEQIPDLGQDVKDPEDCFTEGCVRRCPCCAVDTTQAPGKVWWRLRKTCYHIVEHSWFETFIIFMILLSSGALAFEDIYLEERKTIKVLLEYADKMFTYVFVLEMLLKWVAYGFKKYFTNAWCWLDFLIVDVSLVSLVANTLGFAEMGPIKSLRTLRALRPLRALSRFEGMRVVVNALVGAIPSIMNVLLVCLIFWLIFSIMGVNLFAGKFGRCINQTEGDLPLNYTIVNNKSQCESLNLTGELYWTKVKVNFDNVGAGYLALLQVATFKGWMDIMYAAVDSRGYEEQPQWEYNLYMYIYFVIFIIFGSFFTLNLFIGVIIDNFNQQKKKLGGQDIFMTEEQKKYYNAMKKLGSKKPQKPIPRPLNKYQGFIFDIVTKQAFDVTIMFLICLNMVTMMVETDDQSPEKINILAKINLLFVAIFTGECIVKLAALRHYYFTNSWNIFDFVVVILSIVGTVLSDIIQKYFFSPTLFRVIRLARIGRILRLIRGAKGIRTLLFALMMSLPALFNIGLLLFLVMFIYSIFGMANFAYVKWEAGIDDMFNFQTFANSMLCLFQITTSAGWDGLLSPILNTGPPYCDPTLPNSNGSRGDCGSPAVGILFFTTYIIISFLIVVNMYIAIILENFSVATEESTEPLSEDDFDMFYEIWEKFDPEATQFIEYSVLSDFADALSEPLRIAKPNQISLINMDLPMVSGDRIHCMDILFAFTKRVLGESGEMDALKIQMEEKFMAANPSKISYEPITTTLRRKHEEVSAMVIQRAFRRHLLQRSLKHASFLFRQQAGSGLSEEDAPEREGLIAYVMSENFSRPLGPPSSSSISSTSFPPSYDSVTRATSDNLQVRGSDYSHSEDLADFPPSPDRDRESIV
T3 sequence (Q09470 whole entry): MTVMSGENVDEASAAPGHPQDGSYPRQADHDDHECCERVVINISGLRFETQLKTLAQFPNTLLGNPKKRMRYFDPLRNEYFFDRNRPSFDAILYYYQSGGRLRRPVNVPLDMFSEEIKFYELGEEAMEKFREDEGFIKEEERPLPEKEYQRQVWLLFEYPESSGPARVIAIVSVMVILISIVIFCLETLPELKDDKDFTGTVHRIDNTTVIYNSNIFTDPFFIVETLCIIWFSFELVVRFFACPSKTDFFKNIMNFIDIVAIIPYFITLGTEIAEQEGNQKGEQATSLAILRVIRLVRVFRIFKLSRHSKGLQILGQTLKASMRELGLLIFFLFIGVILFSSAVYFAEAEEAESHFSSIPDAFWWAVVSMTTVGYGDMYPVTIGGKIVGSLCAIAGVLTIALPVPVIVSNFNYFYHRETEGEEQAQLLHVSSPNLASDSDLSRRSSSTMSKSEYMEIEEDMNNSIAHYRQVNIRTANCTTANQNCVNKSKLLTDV
T4 sequence (P16389 whole entry): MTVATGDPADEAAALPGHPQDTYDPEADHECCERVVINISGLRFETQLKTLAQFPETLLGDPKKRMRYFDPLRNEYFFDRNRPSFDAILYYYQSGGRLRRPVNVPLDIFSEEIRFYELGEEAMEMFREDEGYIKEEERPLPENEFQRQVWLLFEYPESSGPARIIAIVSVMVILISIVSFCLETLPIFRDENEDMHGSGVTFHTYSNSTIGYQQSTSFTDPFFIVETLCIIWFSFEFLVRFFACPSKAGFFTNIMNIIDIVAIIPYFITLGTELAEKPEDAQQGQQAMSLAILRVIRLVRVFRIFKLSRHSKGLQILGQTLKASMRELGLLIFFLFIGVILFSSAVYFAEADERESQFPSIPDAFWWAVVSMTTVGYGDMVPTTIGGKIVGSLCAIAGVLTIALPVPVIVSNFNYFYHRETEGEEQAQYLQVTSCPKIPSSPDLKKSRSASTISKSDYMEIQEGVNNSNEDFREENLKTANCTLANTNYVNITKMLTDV

Substance: 27 (GSACQFWSCNSSCISRGYRQGYCWGIQYKYCQCQ) [compound 27]
- Activity of TRPV1 with peptide, expressed as a percentage of the reference compound (TRPV1; peptide at 0.2 μM): 99%
- Activity of TRPV1 with peptide (percentage of the reference compound) (TRPV1; peptide at 20 μM): 67%
- Activity of Kv1.3 with peptide, expressed as a percentage of the reference compound (Kv1.3; peptide at 0.2 μM): 106%
- Activity of Kv1.3 with peptide (percentage of the reference compound) (Kv1.3; peptide at 20 μM): 100%
- Activity of Kv1.1 with peptide, expressed as a percentage of the reference compound (Kv1.1; peptide at 0.2 μM): 81%
- Activity of Kv1.1 with peptide (percentage of the reference compound) (Kv1.1; peptide at 20 μM): 89%
- Activity of Kv1.2 with peptide, expressed as a percentage of the reference compound (Kv1.2; peptide at 0.2 μM): 84%
- Activity of Kv1.2 with peptide (percentage of the reference compound) (Kv1.2; peptide at 20 μM): 107%
- Activity of TRPA1 with peptide, expressed as a percentage of the reference compound (TRPA1; peptide at 0.2 μM): 85%
- Activity of TRPA1 with peptide (percentage of the reference compound) (TRPA1; peptide at 20 μM): 114%
- Activity of Nav1.7 with peptide, expressed as a percentage of the reference compound (Nav1.7; [1]): 104%
- Activity of Nav1.7 with peptide, expressed as a percentage of the reference compound (Nav1.7; [2]): 114%
- Activity of Nav1.7 with peptide (percentage of the reference compound) (Nav1.7; [1]): 97%
- Activity of Nav1.7 with peptide (percentage of the reference compound) (Nav1.7; [2]): 97%
- Activity of Nav1.5 with peptide, expressed as a percentage of the reference compound (Nav1.5; [3]): 94%
- Activity of Nav1.5 with peptide, expressed as a percentage of the reference compound (Nav1.5; [4]): 93%
- Activity of Nav1.5 with peptide (percentage of the reference compound) (Nav1.5; [3]): 104%
- Activity of Nav1.5 with peptide (percentage of the reference compound) (Nav1.5; [4]): 109%
- Activity of hERG with peptide, expressed as a percentage of the reference compound (hERG; peptide at 0.2 μM): 90%
- Activity of hERG with peptide (percentage of the reference compound) (hERG; peptide at 20 μM): 75%
- Activity of GABA with peptide, expressed as a percentage of the reference compound (GABA; peptide at 0.2 μM): 112%
- Activity of GABA with peptide (percentage of the reference compound) (GABA; peptide at 20 μM): 105%
- Activity of 5HT3a with peptide (percentage of the reference compound) (5HT3a): 78%
- Activity of 5HT3a with peptide, expressed as a percentage of the reference compound (5HT3a): 105%
- Activity of a3b4 with peptide, expressed as a percentage of the reference compound (α3β4; peptide at 0.2 μM): 98%
- Activity of a3b4 with peptide (percentage of the reference compound) (α3β4; peptide at 20 μM): 93%
- Activity of NR2B with peptide, expressed as a percentage of the reference compound (NR2B; peptide at 0.2 μM): 79%
- Activity of NR2B with peptide (percentage of the reference compound) (NR2B; peptide at 20 μM): 89%
- Activity of Cav2.1 with peptide, expressed as a percentage of the reference compound (Cav2.1; peptide at 0.2 μM): 108%
- Activity of Cav2.1 with peptide (percentage of the reference compound) (Cav2.1; peptide at 20 μM): 103%
- Activity of Cav2.2 with peptide, expressed as a percentage of the reference compound (Cav2.2; peptide at 0.2 μM): 105%
- Activity of Cav2.2 with peptide (percentage of the reference compound) (Cav2.2; peptide at 20 μM): 116%
- Activity of Kv2.1 with peptide, expressed as a percentage of the reference compound (Kv2.1; peptide at 0.2 μM): 91%
- Activity of Kv2.1 with peptide (percentage of the reference compound) (Kv2.1; peptide at 20 μM): 94%
- Activity of a4b2 with peptide, expressed as a percentage of the reference compound (α4β2; peptide at 0.2 μM): 90%
- Activity of a4b2 with peptide (percentage of the reference compound) (α4β2; peptide at 20 μM): 82%
- Activity of NR2A with peptide, expressed as a percentage of the reference compound (NR2A; peptide at 0.2 μM): 98%
- Activity of NR2A with peptide (percentage of the reference compound) (NR2A; peptide at 20 μM): 88%
- Activity of Kir2.1 with peptide, expressed as a percentage of the reference compound (Kir2.1; peptide at 0.2 μM): 101%
- Activity of Kir2.1 with peptide (percentage of the reference compound) (Kir2.1; peptide at 20 μM): 86%
